According to the supplement of paper PMC7877785:
± gives the uncertainty stated by the source.

Test: self-splicing fitness, log relative to wild type (ln ratio); higher = more splicing; Tetrahymena group I intron in knt gene, E. coli kanamycin selection, DiMSum; sequences stand for … in CUCUCU…GGAGGGAAAAGUUAUCAGGCAUGCACCUGGUAGCUAGUCUUUAAACCAAUAGAUUGCAUCGGUUUAAAAGGCAAGACCGUCAAAUUGCGGGAAAGGGGUCAACAGCCGUUCAGUACCAAGUCUCAGGGGAAACUUUGAGAUGGCCUUGCAAAGGGUAUGGUAAUAAGCUGACGGACAUGGUCCUAACCACGCAGCCAAGUCCUAAGUCAACAGAUCUUCUGUUGAUAUGGAUGCAGUUCACAGACUAAAUGUCGGUCGGGGAAGAUGUAUUCUUCUCAUAAGAUAUAGUCGGACCUCUCCUUAAUGGGAGCUAGCGGAUGAAGUGAUGCAACACUGGAGCCGCUGGGAACUAAUUUGUAUGCGAAAGUAUAUUGAUUAGUUUUGGAGUACUCGUGGUCG
Summary of the method: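 Fitness was computed with DiMSum as the error-weighted combination of replicate fold changes, kanamycin versus none, each normalised to wild type. The library randomised all eight intron nucleotides of the P1ex region, with the intron placed in the knt kanamycin-resistance gene on pET-22b(+) in E. coli BL21(DE3). Six replicate transformations were grown overnight at 37°C or 30°C on LB agar with or without 25 μg/mL kanamycin, plus 100 μg/mL carbenicillin, 50 μM IPTG and 0.2% rhamnose. Pooled colonies were amplicon-sequenced on an Illumina HiSeq 2500.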

Sequence | self-splicing fitness (ln) (30 °C) | self-splicing fitness (ln) (37 °C)
GUCAAGCAAUAUUACGGUAA | -1.28 ± 0.18 | -0.000783 ± 0.17
AACGAGCAAUAUUACGGUAG | -3.73 ± 0.15 | -3.17 ± 0.18
AAAGAGCAAUAUUACGCUAA | – | -1.52 ± 0.28
ACACAGCAAUAUUACGUCCC | -1.16 ± 0.098 | -0.00572 ± 0.12
AUCUAGCAAUAUUACGGGCG | -0.656 ± 0.1 | -0.967 ± 0.11
GGUAAGCAAUAUUACGGACA | -0.53 ± 0.13 | -0.0615 ± 0.15
GUUAAGCAAUAUUACGGUCC | -0.666 ± 0.12 | 0.191 ± 0.15
GUACAGCAAUAUUACGGUGA | -1.75 ± 0.14 | -0.943 ± 0.12
AAUCAGCAAUAUUACGUUUA | -0.652 ± 0.045 | -0.106 ± 0.06
CCAUAGCAAUAUUACGCGGU | -3.9 ± 0.23 | -2.5 ± 0.26
AAACAGCAAUAUUACGGGGG | -3.28 ± 0.22 | -2.52 ± 0.19
UUGCAGCAAUAUUACGCGUA | -0.889 ± 0.13 | -0.457 ± 0.11
GGUCAGCAAUAUUACGAGCG | 0.269 ± 0.081 | -0.0123 ± 0.094
AUCAAGCAAUAUUACGAGCG | -1.92 ± 0.12 | -1.21 ± 0.14
CAUCAGCAAUAUUACGAAAG | -0.638 ± 0.065 | -0.249 ± 0.087
CGAAAGCAAUAUUACGAGGG | -3.66 ± 0.14 | -2.17 ± 0.13
CCGUAGCAAUAUUACGGCCG | -1.05 ± 0.16 | -0.466 ± 0.18
UACUAGCAAUAUUACGAUCU | -1.31 ± 0.13 | -0.847 ± 0.14
GGAUAGCAAUAUUACGUCUC | -2.52 ± 0.25 | -2.16 ± 0.46

Sequence | self-splicing fitness (ln) (30 °C) | self-splicing fitness (ln) (37 °C)
CUUUAGCAAUAUUACGGCGG | -0.763 ± 0.093 | -0.528 ± 0.12
GGGCAGCAAUAUUACGCCAG | -2.02 ± 0.1 | -0.684 ± 0.13
AGGAAGCAAUAUUACGGCAA | -1.52 ± 0.096 | -0.574 ± 0.12
GCUGAGCAAUAUUACGGUCU | -2.03 ± 0.2 | -1.65 ± 0.21
ACCUAGCAAUAUUACGUCGG | -1.07 ± 0.078 | -1.11 ± 0.11
AUGUAGCAAUAUUACGGACC | -1.05 ± 0.2 | -0.411 ± 0.21
AACGAGCAAUAUUACGCGGC | -2.71 ± 0.33 | -2.15 ± 0.33
CACAAGCAAUAUUACGUGAC | -4.87 ± 0.34 | -2.77 ± 0.2
GCCUAGCAAUAUUACGGUGA | -1.09 ± 0.067 | -0.113 ± 0.073
GACCAGCAAUAUUACGCCUG | -2.16 ± 0.11 | -0.614 ± 0.12
AGCAAGCAAUAUUACGGUUA | -0.707 ± 0.08 | 0.127 ± 0.08
GCGUAGCAAUAUUACGGGUC | -3.34 ± 0.29 | -1.54 ± 0.21
CAACAGCAAUAUUACGCCUA | -2.08 ± 0.12 | -1.31 ± 0.11
CACCAGCAAUAUUACGUACU | -3.08 ± 0.2 | -2.21 ± 0.2
GAAGAGCAAUAUUACGUCCU | -2.59 ± 0.48 | -0.861 ± 0.29
CCAUAGCAAUAUUACGCUCG | -1.69 ± 0.1 | -0.407 ± 0.13
UUCUAGCAAUAUUACGCUAG | -3.41 ± 0.23 | -2.42 ± 0.41
UCGAAGCAAUAUUACGAGAC | -3.11 ± 0.22 | –
